From paper PMC3836750, “A Novel Antibody Humanization Method Based on Epitopes Scanning and Molecular Dynamics Simulation” (PLoS ONE, 2013) come the findings set out here.

Experiment [1] has as its target refined 1-17-2 antibody (humanized antibody with back mutation of the 5 key residues L38, L43, L45, L71 and H77) (rat | human). Nature of the experiment: SPR; BIACORE T200, CM5 chip; antibody captured on immobilized anti-human IgG (Fc) (human antibody capture kit); DEC-S solution passed through, 6 concentrations; regeneration 3 M magnesium chloride; KD = kd/ka. On the technique in general: In SPR one partner is held on a chip, and binding of the other changes the refractive index at the surface.

For experiment [2], the target named is T1, DEC-205 protein (DEC-S) (Homo sapiens, UniProt O60449).
T1 construct: DEC-205 protein in solution (DEC-S) used as SPR analyte; DEC-S is probably a soluble form of DEC-205
T1 sequence (O60449 28-1722): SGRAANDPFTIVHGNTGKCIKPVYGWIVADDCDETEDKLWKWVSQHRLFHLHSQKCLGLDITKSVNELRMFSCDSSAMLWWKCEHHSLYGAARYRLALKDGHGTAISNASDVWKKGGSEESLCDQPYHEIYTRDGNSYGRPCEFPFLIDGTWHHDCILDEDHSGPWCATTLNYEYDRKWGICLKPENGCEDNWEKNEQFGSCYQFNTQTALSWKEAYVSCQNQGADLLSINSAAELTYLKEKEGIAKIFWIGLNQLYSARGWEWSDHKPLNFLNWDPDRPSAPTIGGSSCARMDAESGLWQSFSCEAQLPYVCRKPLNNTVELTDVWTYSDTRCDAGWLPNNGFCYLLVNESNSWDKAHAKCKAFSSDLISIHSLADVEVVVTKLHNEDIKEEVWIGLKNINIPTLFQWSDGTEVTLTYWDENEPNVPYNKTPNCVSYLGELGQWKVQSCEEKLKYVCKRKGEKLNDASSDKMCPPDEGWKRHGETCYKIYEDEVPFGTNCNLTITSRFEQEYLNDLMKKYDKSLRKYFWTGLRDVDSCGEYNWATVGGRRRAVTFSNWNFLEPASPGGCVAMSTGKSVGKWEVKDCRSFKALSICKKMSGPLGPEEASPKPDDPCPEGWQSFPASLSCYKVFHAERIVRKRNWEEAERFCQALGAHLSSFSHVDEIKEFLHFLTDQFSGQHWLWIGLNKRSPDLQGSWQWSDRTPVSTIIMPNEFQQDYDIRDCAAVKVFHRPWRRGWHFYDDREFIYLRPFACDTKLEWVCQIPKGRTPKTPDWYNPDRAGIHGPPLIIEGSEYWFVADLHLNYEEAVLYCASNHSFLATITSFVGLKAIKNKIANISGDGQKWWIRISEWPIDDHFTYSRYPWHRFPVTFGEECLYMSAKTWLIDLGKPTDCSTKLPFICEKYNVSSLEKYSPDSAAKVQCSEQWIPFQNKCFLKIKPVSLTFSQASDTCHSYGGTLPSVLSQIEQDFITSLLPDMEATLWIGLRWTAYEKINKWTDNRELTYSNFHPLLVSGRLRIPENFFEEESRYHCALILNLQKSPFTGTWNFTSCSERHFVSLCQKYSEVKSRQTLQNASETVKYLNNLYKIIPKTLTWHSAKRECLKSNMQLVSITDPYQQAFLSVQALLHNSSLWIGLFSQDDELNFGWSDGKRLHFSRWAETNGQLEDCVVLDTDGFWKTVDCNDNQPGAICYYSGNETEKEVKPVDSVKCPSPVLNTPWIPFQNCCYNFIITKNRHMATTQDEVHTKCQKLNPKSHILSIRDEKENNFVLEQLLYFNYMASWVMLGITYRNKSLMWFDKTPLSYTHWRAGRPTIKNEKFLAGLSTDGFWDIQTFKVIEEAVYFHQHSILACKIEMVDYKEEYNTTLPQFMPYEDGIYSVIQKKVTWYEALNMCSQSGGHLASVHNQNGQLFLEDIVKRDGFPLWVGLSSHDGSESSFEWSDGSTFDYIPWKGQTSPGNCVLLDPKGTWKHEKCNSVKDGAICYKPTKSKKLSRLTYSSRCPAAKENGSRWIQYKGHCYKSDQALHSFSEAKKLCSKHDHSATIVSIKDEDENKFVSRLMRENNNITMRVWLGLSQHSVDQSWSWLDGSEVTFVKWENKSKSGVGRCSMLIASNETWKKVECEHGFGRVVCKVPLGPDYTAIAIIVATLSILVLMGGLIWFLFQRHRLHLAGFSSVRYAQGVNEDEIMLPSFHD
Nature of the experiment: SPR; BIACORE T200, CM5 chip; murine (rat) antibody immobilized by amine coupling; DEC-205 protein 500 to 15.625 nM, 240 sec injection at 30 µl/min, 600 sec dissociation; regeneration Glycine-HCl pH 2.5; KD = kd/ka. Conditions: both partners purified.

The target of experiment [3] is T1, DEC-205 protein (DEC-S). Nature of the experiment: SPR; BIACORE T200, CM5 chip; antibody captured on immobilized anti-human IgG (Fc) (human antibody capture kit); DEC-S solution passed through, 6 concentrations; regeneration 3 M magnesium chloride; KD = kd/ka. As to conditions: both partners purified.

Numbering of substitutions follows the chain as printed.

By Kd is commonly meant the equilibrium constant for the complex coming apart. Broadly, the koff is a measure of how fast the partners let go of each other. What is called kon is the second-order rate constant of association. “DEC-205 protein (DEC-S) (from UniProt O60449 28-1722) (receptor)”: in experiment [1], the Kd came out at 16.7 nM, the koff is 0.000137 s⁻¹ and the kon came out at 8220 M⁻¹ s⁻¹.

B1: 1-17-2 rat anti-human DEC-205 monoclonal antibody (antibody, V domains shown)
VH: EVQLVESGGGLVQPGRSLKLSCAASGFTFSHYYMAWVRQAPTKGLEWVAYISTDGGTTYYRDSVKGRFTISRDNARSTLYLQVDSLRSEDTATYYCTTGQPGYNLDYFDYWGQGVMVTVSS
VL: DIQMTQSPASLSASLEEIVTITCQASQDIGYWLAWYQLKPGKSPQLLIYGATSLADGVSSRFSGSRSGTQYSLKISRLQVEDIGIYYCQQASSVPWTFGGGTKLELK
notes: VH of rat antibody 1-17-2; rat IgG1 heavy chain constant region (isotype IgG1 stated); VL of rat antibody 1-17-2; rat kappa light chain constant region (isotype kappa stated); Rat IgG1, kappa; also called Rat Ab; rat mAb; source: expressed in vitro and purified; hybridoma 1-17-2 from rats immunized with DEC-1-YB2/0 cells
In the experiment with DEC-205 protein (DEC-S) [2], B1 displayed a Kd of 29.7 nM, a koff of 0.000185 s⁻¹ and a kon of 6290 M⁻¹ s⁻¹.

B2: chimeric 1-17-2 antibody (variable regions of 1-17-2 with constant regions of a human antibody) (antibody, V domains shown)
VH: B1 VH
VL: B1 VL
notes: as the VH of m1; human heavy chain constant region contained in the MH vector; as the VL of m1; human light chain constant region contained in the MK vector; Captured by anti-human IgG (Fc) in SPR, so a human IgG; Vectors MH and MK from Dr. Linqi Zhang; also called Chi Ab; chimeric antibody
In the experiment with DEC-205 protein (DEC-S) [3], B2 returned a Kd of 35.4 nM, a koff of 0.000273 s⁻¹ and a kon of 8040 M⁻¹ s⁻¹.

B3: humanized 1-17-2 antibody (30 mutations based on the chimeric antibody) (antibody, V domains shown)
VH: B1 VH with K19R, T42G, A75S, R76K, S77N, V83M, D84N, T93V, V115T, M116L
VL: DIQMTQSPSSLSASVGDRVTITCQASQDIGYWLAWYQQKPGKAPKLLIYGATSLADGVPSRFSGSGSGTDFTLTISSLQPEDFATYYCQQASSVPWTFGGGTKLEIK
notes: human heavy chain constant region contained in the MH vector; human light chain constant region contained in the MK vector; Humanized VL and VH fragments were synthesized; also called Hu Ab; humanized antibody
For B3, in the experiment with DEC-205 protein (DEC-S) [3], binding was put at a Kd of 373 nM, the koff amounted to 0.00105 s⁻¹ and the kon came out at 2930 M⁻¹ s⁻¹.
